We go through 2 molecules from patent US20240261333A1 (published 2024).

Test in all cases: co-IP with anti-FLAG, N-FLAG B3GNT2, mass spectrometry
One assay concerns the target T1, GEMIN4 (human, UniProt P57678 1-1058).
T1 construct: also called NP_056536.2 (+2)
T1 sequence (looked up): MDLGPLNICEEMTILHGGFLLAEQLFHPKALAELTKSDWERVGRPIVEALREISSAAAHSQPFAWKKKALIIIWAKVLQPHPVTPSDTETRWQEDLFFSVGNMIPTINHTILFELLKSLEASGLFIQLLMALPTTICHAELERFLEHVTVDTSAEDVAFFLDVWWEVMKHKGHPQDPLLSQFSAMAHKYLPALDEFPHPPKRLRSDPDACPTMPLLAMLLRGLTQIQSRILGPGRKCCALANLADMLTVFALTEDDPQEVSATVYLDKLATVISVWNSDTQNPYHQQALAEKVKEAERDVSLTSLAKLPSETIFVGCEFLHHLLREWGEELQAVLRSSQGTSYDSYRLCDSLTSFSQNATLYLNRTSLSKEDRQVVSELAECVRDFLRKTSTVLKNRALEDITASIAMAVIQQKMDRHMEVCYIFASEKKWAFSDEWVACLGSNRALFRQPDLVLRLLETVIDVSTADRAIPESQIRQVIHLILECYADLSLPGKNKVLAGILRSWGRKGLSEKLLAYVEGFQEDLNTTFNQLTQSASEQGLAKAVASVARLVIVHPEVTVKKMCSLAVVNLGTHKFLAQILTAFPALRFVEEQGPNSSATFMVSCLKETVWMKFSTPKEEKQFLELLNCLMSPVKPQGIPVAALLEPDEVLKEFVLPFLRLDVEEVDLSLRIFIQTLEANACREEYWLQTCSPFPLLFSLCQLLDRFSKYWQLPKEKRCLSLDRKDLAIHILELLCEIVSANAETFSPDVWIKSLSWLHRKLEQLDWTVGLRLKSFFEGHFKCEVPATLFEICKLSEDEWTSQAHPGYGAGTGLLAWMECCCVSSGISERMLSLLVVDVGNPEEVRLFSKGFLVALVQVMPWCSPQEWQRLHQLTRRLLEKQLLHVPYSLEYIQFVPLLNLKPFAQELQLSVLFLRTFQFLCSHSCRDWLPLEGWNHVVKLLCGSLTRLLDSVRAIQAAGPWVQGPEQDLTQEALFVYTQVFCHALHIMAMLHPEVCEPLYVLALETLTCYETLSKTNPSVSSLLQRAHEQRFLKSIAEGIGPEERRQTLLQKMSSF

The target in another assay is T2, GBF1 (human, UniProt Q92538 1-1860, limits assumed).
T2 construct: also called NP_001186307.1 (+13)
T2 sequence (Q92538 whole entry): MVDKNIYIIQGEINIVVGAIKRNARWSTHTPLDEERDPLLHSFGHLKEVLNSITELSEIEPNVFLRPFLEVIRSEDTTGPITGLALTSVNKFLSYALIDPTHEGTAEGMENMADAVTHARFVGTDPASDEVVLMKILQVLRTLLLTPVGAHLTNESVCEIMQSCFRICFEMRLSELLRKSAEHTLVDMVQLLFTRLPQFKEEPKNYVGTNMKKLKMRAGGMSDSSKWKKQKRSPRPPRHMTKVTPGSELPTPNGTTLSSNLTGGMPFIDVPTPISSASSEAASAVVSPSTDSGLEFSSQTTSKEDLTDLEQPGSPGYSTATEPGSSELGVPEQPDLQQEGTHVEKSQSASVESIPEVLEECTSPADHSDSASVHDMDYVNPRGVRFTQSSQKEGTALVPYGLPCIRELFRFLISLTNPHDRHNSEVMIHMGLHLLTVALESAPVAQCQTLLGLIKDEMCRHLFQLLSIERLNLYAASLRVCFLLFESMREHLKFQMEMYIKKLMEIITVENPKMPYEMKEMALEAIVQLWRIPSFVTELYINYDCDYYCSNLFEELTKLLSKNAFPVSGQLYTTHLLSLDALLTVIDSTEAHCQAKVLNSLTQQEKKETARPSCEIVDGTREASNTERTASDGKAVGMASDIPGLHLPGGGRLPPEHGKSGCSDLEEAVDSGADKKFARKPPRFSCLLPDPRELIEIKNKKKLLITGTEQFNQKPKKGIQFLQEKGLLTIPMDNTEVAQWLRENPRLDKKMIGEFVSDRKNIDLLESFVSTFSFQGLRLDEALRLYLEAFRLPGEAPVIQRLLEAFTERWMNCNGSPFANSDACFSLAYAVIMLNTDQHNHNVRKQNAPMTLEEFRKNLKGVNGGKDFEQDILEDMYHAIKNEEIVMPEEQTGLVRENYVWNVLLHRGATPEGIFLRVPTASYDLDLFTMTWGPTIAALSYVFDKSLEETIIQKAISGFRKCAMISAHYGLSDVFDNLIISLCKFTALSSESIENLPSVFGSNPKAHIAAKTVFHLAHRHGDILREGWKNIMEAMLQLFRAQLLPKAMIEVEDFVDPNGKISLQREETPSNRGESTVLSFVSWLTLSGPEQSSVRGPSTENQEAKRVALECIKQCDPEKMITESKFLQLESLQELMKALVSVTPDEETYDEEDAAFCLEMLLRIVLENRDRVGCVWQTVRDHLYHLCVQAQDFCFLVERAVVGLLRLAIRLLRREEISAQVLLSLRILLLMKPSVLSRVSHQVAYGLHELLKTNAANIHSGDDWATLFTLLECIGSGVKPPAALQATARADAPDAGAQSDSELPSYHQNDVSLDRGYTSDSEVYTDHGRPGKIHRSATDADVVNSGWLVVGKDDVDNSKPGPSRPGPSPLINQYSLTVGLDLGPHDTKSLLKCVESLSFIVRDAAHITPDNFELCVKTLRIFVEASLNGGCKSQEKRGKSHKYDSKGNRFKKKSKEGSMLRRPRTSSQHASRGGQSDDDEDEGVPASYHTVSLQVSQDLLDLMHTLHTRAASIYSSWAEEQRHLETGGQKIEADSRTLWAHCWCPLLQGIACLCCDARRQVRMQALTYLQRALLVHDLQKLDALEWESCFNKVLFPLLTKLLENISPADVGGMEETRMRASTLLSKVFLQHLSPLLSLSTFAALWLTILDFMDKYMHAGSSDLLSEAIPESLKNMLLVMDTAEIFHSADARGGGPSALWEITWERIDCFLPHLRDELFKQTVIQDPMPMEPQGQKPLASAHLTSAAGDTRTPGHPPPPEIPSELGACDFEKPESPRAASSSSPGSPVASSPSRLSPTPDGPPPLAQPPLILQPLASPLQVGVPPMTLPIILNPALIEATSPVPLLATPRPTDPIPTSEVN

The target in the next assay is T3, P4HA2 (human, UniProt O15460 22-535, limits assumed).
T3 construct: also called NP_001352606.1 (+3)
T3 sequence (O15460 22-535 limits assumed): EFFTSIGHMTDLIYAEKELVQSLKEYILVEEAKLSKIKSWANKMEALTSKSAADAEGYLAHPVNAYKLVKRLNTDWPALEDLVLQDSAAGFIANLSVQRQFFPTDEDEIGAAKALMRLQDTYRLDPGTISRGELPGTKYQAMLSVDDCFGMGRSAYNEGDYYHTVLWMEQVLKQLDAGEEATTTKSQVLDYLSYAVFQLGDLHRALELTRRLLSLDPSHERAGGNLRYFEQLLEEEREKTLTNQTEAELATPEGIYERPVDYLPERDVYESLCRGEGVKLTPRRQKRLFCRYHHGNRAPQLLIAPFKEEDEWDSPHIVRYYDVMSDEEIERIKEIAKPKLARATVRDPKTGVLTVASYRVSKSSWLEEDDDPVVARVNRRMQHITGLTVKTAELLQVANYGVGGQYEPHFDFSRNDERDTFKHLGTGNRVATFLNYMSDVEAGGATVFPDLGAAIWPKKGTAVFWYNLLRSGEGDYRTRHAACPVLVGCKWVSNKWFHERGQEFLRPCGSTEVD

In a further assay the target is RPL7A (human, UniProt P62424 1-266).
For a further assay, the target named is T4, TGM1 (human, UniProt P22735 1-817, limits assumed).
T4 construct: also called NP_000350.1
T4 sequence (looked up): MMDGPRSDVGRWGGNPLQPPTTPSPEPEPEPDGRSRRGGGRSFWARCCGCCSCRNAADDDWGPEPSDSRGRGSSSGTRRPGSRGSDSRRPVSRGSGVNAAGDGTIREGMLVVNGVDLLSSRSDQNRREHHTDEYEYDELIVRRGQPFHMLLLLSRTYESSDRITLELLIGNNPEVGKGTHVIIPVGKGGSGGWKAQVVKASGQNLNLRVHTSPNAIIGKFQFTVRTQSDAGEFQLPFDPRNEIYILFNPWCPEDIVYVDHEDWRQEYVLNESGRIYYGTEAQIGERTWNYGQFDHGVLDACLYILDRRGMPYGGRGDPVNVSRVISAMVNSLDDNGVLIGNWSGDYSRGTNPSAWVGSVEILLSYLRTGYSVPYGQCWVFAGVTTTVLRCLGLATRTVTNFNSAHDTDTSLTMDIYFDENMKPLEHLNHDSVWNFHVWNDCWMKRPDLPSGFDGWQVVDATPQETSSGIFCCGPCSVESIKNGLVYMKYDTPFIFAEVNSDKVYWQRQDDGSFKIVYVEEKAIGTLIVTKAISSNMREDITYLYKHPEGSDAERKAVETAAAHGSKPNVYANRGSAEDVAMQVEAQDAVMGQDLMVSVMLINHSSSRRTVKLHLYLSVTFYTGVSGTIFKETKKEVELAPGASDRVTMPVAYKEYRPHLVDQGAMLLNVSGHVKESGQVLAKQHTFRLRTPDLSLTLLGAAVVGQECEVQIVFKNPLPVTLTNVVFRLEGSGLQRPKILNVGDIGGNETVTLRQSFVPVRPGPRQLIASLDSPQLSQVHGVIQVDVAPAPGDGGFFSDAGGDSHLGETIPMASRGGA

B1: N-terminal FLAG tagged B3GNT2 (enzyme, human, UniProt Q9NY97 1-397, looked up)
chain: MSVGRRRIKLLGILMMANVFIYFIMEVSKSSSQEKNGKGEVIIPKEKFWKISTPPEAYWNREQEKLNRQYNPILSMLTNQTGEAGRLSNISHLNYCEPDLRVTSVVTGFNNLPDRFKDFLLYLRCRNYSLLIDQPDKCAKKPFLLLAIKSLTPHFARRQAIRESWGQESNAGNQTVVRVFLLGQTPPEDNHPDLSDMLKFESEKHQDILMWNYRDTFFNLSLKEVLFLRWVSTSCPDTEFVFKGDDDVFVNTHHILNYLNSLSKTKAKDLFIGDVIHNAGPHRDKKLKYYIPEVVYSGLYPPYAGGGGFLYSGHLALRLYHITDQVHLYPIDDVYTGMCLQKLGLVPEKHKGFRTFDIEEKNKNNICSYVDLMLVHSRKPQEMIDIWSQLQSAHLKC
notes: FLAG-tagged ORF overexpressed in cells; pulled down from lysate with mouse anti-FLAG; also called N-FLAG B3GNT2; N-term FLAG; not shown: N-terminal FLAG tag
For the molecule B1, the “co-IP mass spectrometry count” value with GEMIN4 and with GBF1 was 0 in each case.

B2: N-terminal FLAG tagged B3GNT2 (enzyme, human, UniProt Q9NY97 1-397, looked up)
chain: B1 chain
notes: FLAG-tagged ORF overexpressed in A375 cells; pulled down from the lysate with mouse anti-FLAG; also called N-FLAG B3GNT2; N-term FLAG; not shown: N-terminal FLAG tag
In the case of B2, the “co-IP/MS count, N-term FLAG” value with P4HA2 is 0; with RPL7A, 8; in the assay with TGM1 it was 17.
